Among the data in the Human Domainome abundance scans (Beltran et al. 2025) are abundance fitness values, retold here.

± gives the uncertainty stated by the source.

B1: Protein C-ets-1, residues 55 to 135; numbered along this chain, P14921 (parent)
chain: GFTKEQQRLGIPKDPRQWTETHVRDWVMWAVNEFSLKGVDFQKFCMNGAALCALGKDCFLELAPDFVGDILWEHLEILQKE

The variants in this data set derive from B1. Put plainly: abundance fitness (aPCA) (normalised: wild type 0, dead -1); higher = more abundant; growth selection in yeast, the domain comes from the species named. The note with it: Homo sapiens.
Take GFTKEQQRLGIPKDPRQWTETHVRDWVMWAVNEFSLKGVDFQKFCMNGAALCALLKDCFLELAPDFVGDILWEHLEILQKE: the abundance fitness was -0.791 ± 0.054.
Consider GFTKEQQRLGIPKDPRQWTETHVRDWVMWAVNEFSLKGVDFQKFCMNGAALCALPKDCFLELAPDFVGDILWEHLEILQKE, for which the abundance fitness was 0.01 ± 0.037.
The value for GFTKEQQRLGIPKDPRQWTETHVRDWVMWAVNEFSLKGVDFQKFCMNGAALCALNKDCFLELAPDFVGDILWEHLEILQKE was 0.03 ± 0.085.
As for GFTKEQQRLGIPKDPRQWTETHVRDWVMWAVNEFSLKGVDFQKFCMNGAALCALDKDCFLELAPDFVGDILWEHLEILQKE, the figure is 0.061 ± 0.053; as for GFTKEQQRLGIPKDPRQWTETHVRDWVMWAVNEFSLKGVDFQKFCMNGAALCALFKDCFLELAPDFVGDILWEHLEILQKE, -0.992 ± 0.15; as for GFTKEQQRLGIPKDPRQWTETHVRDWVMWAVNEFSLKGVDFQKFCMNGAALCALKKDCFLELAPDFVGDILWEHLEILQKE, 0.029 ± 0.059.
As for GFTKEQQRLGIPKDPRQWTETHVRDWVMWAVNEFSLKGVDFQKFCMNGAALCALHKDCFLELAPDFVGDILWEHLEILQKE, the abundance fitness is -0.055 ± 0.066.
As for GFTKEQQRLGIPKDPRQWTETHVRDWVMWAVNEFSLKGVDFQKFCMNGAALCALEKDCFLELAPDFVGDILWEHLEILQKE, the figure is 0.031 ± 0.046; as for GFTKEQQRLGIPKDPRQWTETHVRDWVMWAVNEFSLKGVDFQKFCMNGAALCALVKDCFLELAPDFVGDILWEHLEILQKE, -0.448 ± 0.036.
As for GFTKEQQRLGIPKDPRQWTETHVRDWVMWAVNEFSLKGVDFQKFCMNGAALCALRKDCFLELAPDFVGDILWEHLEILQKE, the figure is -0.04 ± 0.029; as for GFTKEQQRLGIPKDPRQWTETHVRDWVMWAVNEFSLKGVDFQKFCMNGAALCALCKDCFLELAPDFVGDILWEHLEILQKE, 0.019 ± 0.057; as for GFTKEQQRLGIPKDPRQWTETHVRDWVMWAVNEFSLKGVDFQKFCMNGAALCALMKDCFLELAPDFVGDILWEHLEILQKE, -0.433 ± 0.051.
As for GFTKEQQRLGIPKDPRQWTETHVRDWVMWAVNEFSLKGVDFQKFCMNGAALCALYKDCFLELAPDFVGDILWEHLEILQKE, the figure is -0.502 ± 0.064; as for GFTKEQQRLGIPKDPRQWTETHVRDWVMWAVNEFSLKGVDFQKFCMNGAALCALAKDCFLELAPDFVGDILWEHLEILQKE, 0.002 ± 0.035; as for GFTKEQQRLGIPKDPRQWTETHVRDWVMWAVNEFSLKGVDFQKFCMNGAALCALQKDCFLELAPDFVGDILWEHLEILQKE, -0.08 ± 0.055.
For GFTKEQQRLGIPKDPRQWTETHVRDWVMWAVNEFSLKGVDFQKFCMNGAALCALTKDCFLELAPDFVGDILWEHLEILQKE, the abundance fitness was found to be 0.041 ± 0.04.
As for GFTKEQQRLGIPKDPRQWTETHVRDWVMWAVNEFSLKGVDFQKFCMNGAALCHLGKDCFLELAPDFVGDILWEHLEILQKE, the figure is -0.188 ± 0.075; as for GFTKEQQRLGIPKDPRQWTETHVRDWVMWAVNEFSLKGVDFQKFCMNGAALCWLGKDCFLELAPDFVGDILWEHLEILQKE, -0.583 ± 0.045.
The value for GFTKEQQRLGIPKDPRQWTETHVRDWVMWAVNEFSLKGVDFQKFCMNGAALCGLGKDCFLELAPDFVGDILWEHLEILQKE was -0.028 ± 0.023; that for GFTKEQQRLGIPKDPRQWTETHVRDWVMWAVNEFSLKGVDFQKFCMNGAALCKLGKDCFLELAPDFVGDILWEHLEILQKE was -0.021 ± 0.048.
Turning to GFTKEQQRLGIPKDPRQWTETHVRDWVMWAVNEFSLKGVDFQKFCMNGAALCFLGKDCFLELAPDFVGDILWEHLEILQKE, the abundance fitness was -0.655 ± 0.066.
As for GFTKEQQRLGIPKDPRQWTETHVRDWVMWAVNEFSLKGVDFQKFCMNGAALCYLGKDCFLELAPDFVGDILWEHLEILQKE, the figure is -0.583 ± 0.081; as for GFTKEQQRLGIPKDPRQWTETHVRDWVMWAVNEFSLKGVDFQKFCMNGAALCRLGKDCFLELAPDFVGDILWEHLEILQKE, -0.046 ± 0.024.
The value for GFTKEQQRLGIPKDPRQWTETHVRDWVMWAVNEFSLKGVDFQKFCMNGAALCQLGKDCFLELAPDFVGDILWEHLEILQKE was -0.097 ± 0.046; that for GFTKEQQRLGIPKDPRQWTETHVRDWVMWAVNEFSLKGVDFQKFCMNGAALCELGKDCFLELAPDFVGDILWEHLEILQKE was 0.052 ± 0.044; that for GFTKEQQRLGIPKDPRQWTETHVRDWVMWAVNEFSLKGVDFQKFCMNGAALCMLGKDCFLELAPDFVGDILWEHLEILQKE was -0.09 ± 0.052.
The value for GFTKEQQRLGIPKDPRQWTETHVRDWVMWAVNEFSLKGVDFQKFCMNGAALCNLGKDCFLELAPDFVGDILWEHLEILQKE was 0.01 ± 0.052; that for GFTKEQQRLGIPKDPRQWTETHVRDWVMWAVNEFSLKGVDFQKFCMNGAALCTLGKDCFLELAPDFVGDILWEHLEILQKE was -0.039 ± 0.037.
GFTKEQQRLGIPKDPRQWTETHVRDWVMWAVNEFSLKGVDFQKFCMNGAALCSLGKDCFLELAPDFVGDILWEHLEILQKE: the abundance fitness was determined as 0.016 ± 0.031.
As for GFTKEQQRLGIPKDPRQWTETHVRDWVMWAVNEFSLKGVDFQKFCMNGAALCPLGKDCFLELAPDFVGDILWEHLEILQKE, the abundance fitness is -0.943 ± 0.082.
The value for GFTKEQQRLGIPKDPRQWTETHVRDWVMWAVNEFSLKGVDFQKFCMNGAALCLLGKDCFLELAPDFVGDILWEHLEILQKE was -0.227 ± 0.032; that for GFTKEQQRLGIPKDPRQWTETHVRDWVMWAVNEFSLKGVDFQKFCMNGAALCILGKDCFLELAPDFVGDILWEHLEILQKE was -0.452 ± 0.075; that for GFTKEQQRLGIPKDPRQWTETHVRDWVMWAVNEFSLKGVDFQKFCMNGAALCDLGKDCFLELAPDFVGDILWEHLEILQKE was 0.067 ± 0.048.
The value for GFTKEQQRLGIPKDPRQWTETHVRDWVMWAVNEFSLKGVDFQKFCMNGAALCAEGKDCFLELAPDFVGDILWEHLEILQKE was -0.614 ± 0.051.
